{
  "source": "patent US11306137B2",
  "about": "“Antibody binding agents that bind Acinetobactor and uses thereof” (priority 2015, dated 2022)",
  "molecules": {"B1": {"name": "C8: mouse IgG1-kappa monoclonal antibody from hybridoma 9.1C8 (ATCC PTA-122177); light chain SEQ ID NO:2, heavy chain SEQ ID NO:3 (antibody, listed as Mus musculus, V domains shown)", "VH": "EVQLQQSGPELVKPGASVKISCKASGYSFTGYTMNWVKQSHGKSLEWIGRINPYNGDSFYNQKFKGKATLTVDKSSNIAHMEFLSLTSEDSAVYYCGRSGDGPWFAYWGQGTLVTVSA", "VL": "LPLSLPVSLGDQASISCRSSQSIVHNNGNTYLEWYLQKPGQSPKLLIYKVSNRFSGVPDRFSGSGSGTDFTLKISRVEAEDLGVYYCFQGSHVPLTFGAGTKLEIKGSRS"}},
  "key": {"[1]": {"system": "A. baumannii cell surface", "assay": "Flow cytometry binding to A. baumannii cell surface", "description": "Hybridoma pre-clones were selected for subcloning based on bacterial cell surface reactivity by flow cytometry. Briefly, A. baumannii was passaged to log phase, stained with the bacterial dye SYTO BC (LifeTech #B7277), then stained with pre-clone supernatant from 96-well plates at 4° C., rinsed, and counter-stained with CF 647-conjugated goat anti-mouse IgG (Sigma-Aldrich, #SAB4600182). Control samples were stained with mouse IgG1 isotype control mAb (R&D Systems, #MAB002). Percent positivity was determined by flow cytometry.\nHybridoma cell lines were propagated in 96-well flat-bottom plates in DMEM-20%, and supernatants were harvested from wells for initial flow cytometry screening to identify antibodies that bound to intact bacteria. In brief, A. baumannii isolates were passaged to log phase, stained with the bacterial dye SYTO BC (LifeTech #B7277), and incubated for 1 hr with undiluted supernatants collected from 96-well plates at 4° C. Cells were washed and counter-stained with a secondary antibody, CF647-conjugated goat anti-mouse IgG (Sigma-Aldrich, #SAB4600182). Control samples were stained with a mouse IgG1 isotype control MAb (R&D Systems, #MAB002) as a negative control, and mouse polyclonal HUMC1-immune serum as a positive control for bacterial binding. Hybridomas that tested positive for bacterial binding were subcloned by limiting dilution into 96-well plates to ensure clonality, expanded, and retested to confirm bacterial binding."}, "A. baumannii HUMC1 [2]": {"system": "A. baumannii HUMC1", "assay": "Lethal bloodstream (i.v. tail-vein) infection model, survival", "assay_type": "in vivo, mice", "settings": "for protection against infection (survival): 2×10^7 HUMC1 i.v., treated once i.v., FIG. 2; for survival: HUMC1 i.v., FIG. 3 / FIG. 7B", "description": "(§1) To determine if C8 could treat, inhibit and/or prevent A. baumannii induced sepsis, mice were infected i.v. via the tail-vein with 2×10^7 hyper-virulent A. baumannii HUMC1 and were treated once i.v. with either protein-G purified C8 mAb (approximately 10 or 20 μg doses) or an isotype-control antibody in a saline buffer. […] In a second experiment, mice were similarly infected and the C8 MAb was administered once i.v. in saline buffer at a low (5 μg) and very low (0.5 μg) dose.\n(§2) Male C3HeB/Fe mice (Jackson Labs) between the ages of 7-10 wk were used for all experiments. All animal work was conducted following approval by the Institutional Animal Use and Care Committee at the University of Southern California, in compliance with the recommendations in the Guide for the Care and Use of Laboratory Animals of the National Institutes of Health.\n(§3) For the bloodstream infection model, mice were infected intravenously via the tail-vein with designated inocula of A. baumannii isolates. An oropharyngeal model of aspiration pneumonia that recapitulates hospital- or ventilator-associated pneumonia (VAP) relevant to ICU populations was used. In brief, mice were sedated with isoflurane, hung by their maxillary incisors, tongues held to prevent swallowing, and 50 μL of bacterial inocula was placed in the trachea to allow inoculation of the organisms into the lungs by reflexive aspiration."}, "A. baumannii HUMC1 [3]": {"system": "A. baumannii HUMC1", "assay": "Oropharyngeal aspiration pneumonia model, survival", "assay_type": "in vivo, mice", "settings": "for survival: oropharyngeal aspiration of HUMC1", "description": "as §1, §2, §3"}, "[4]": {"system": "A. baumannii HUMC1 uptake by RAW 264.7 macrophages", "assay": "Opsonophagocytosis assay (macrophage uptake)", "assay_type": "cell-based", "settings": "FIG. 6B", "description": "RAW 264.7 macrophages (1×10^6 per well) were grown on coverslips in 12-well plates and stimulated with 100 U/mL IFN-γ. Cells adhered to the cover glass overnight in a humidified incubator at 37° C. supplemented with 5% CO2. Cells were washed three times with HBSS and bacteria were added to wells at a ratio of 10:1, bacteria to macrophages, in the presence (or absence) of 10% fetal bovine serum (FBS), either heat-inactivated or complement-active. Plates were briefly centrifuged at 250×g to cohere the bacterial cells to the bottom of the plate and incubated at 37° for 2 hr. Macrophages were washed three times with PBS, fixed with 100% methanol, and Hema 3-stained according to the manufacturer's protocol (Fisher Scientific). To quantitate bacteria counts per macrophage, coverslips were imaged on a Zeiss Axiolmager microscope. Macrophages harboring visible adherent or internalized bacteria were counted and divided by total macrophages to determine the percentage of cells with associated bacteria. The number of bacteria associated with each macrophage was also quantitated and recorded. A minimum of 100 cells per coverslip were counted."}, "A. baumannii HUMC1 [5]": {"system": "A. baumannii HUMC1", "assay": "Immunogold transmission electron microscopy", "assay_type": "binding", "settings": "40,000× magnification", "description": "Mid-log-growth A. baumannii cultures were washed twice incubated with primary antibody (200 μg/mL) at room temperature for 30 min, washed three times in PBS, and resuspended in 50 μL PBS. Goat anti-mouse IgG 20 nm Gold Conjugated (TedPella Inc.) was added to each tube at a final concentration of 0.8 μg/mL and incubated at room temperature for 30 min. Bacteria were washed, pelleted, and resuspended in 500 μL of half-strength Karnovsky's Fixative (2% paraformaldehyde and 2.5% gluteraldehyde in 0.1M phosphate buffer) for 2 hours at room temperature. Following incubation, the pellet was dislodged from the bottom of the tube using a bent stick and allowed to sit in fixative overnight. After overnight fixation, fixative was carefully aspirated off and 1 mL of PBS was carefully added to the tube in order to prevent agitation of the pellet. The pellet was then post-fixed in 1% Osmium Tetroxide for 1 hour and stained with 1% Uranyl Acetate overnight. The pellet was then put in 15% BSA for 2 hours and subsequently subjected to another treatment with the half-strength Karnovsky's Fixative to harden. Pellets were washed in water, dehydrated, embedded in Epon, sectioned, and placed on copper grids. Electron Micrographs were taken on a JEOL JEM-2100 Microscope operating at 80 kV."}, "A. baumannii HUMC1 [6]": {"system": "A. baumannii HUMC1", "assay": "Lethal bloodstream (i.v. tail-vein) infection model, survival", "assay_type": "in vivo, mice", "settings": "for protection against infection (survival): 100% lethal inoculum HUMC1 i.v., immediate treatment, FIG. 7A"}, "A. baumannii HUMC1 [7]": {"system": "A. baumannii HUMC1", "assay": "Lung and blood bacterial burden and lung histopathology in aspiration pneumonia", "settings": "24 hr post-infection"}, "A. baumannii HUMC1 [8]": {"system": "A. baumannii HUMC1", "assay": "Blood bacterial density, plasma cytokines and sepsis biomarkers after i.v. infection"}, "[9]": {"settings": "22 hr post-infection, relative to controls"}},
  "note": "“Also recorded” adds a separate entry of the source.",
  "data": [
    {"molecule": "B1", "values": [
      {"measurement": "binding to the cell surface of A. baumannii by flow cytometry", "setting": "[1]; HUMC1 strain", "result": "specifically bound; also recorded: to the same extent as polyclonal immune serum"},
      {"measurement": "surface binding to other clinical isolates by flow cytometry", "setting": "[1]; HUMC6, C14, ATCC 17978, AB0071, UH7007 (Table 7)", "result": "representative of 5 other strains; also recorded: Surface binding was confirmed to 4 other diverse clinical isolates"},
      {"measurement": "protection against infection (survival)", "setting": "A. baumannii HUMC1 [2]; approximately 10 μg", "result": 100, "unit": "%"},
      {"measurement": "protection against infection (survival)", "setting": "A. baumannii HUMC1 [2]; approximately 20 μg", "result": 100, "unit": "%"},
      {"measurement": "survival", "setting": "A. baumannii HUMC1 [2]; 0.5 μg once i.v. immediately", "result": "markedly improved survival; also recorded: significantly improved survival"},
      {"measurement": "survival", "setting": "A. baumannii HUMC1 [2]; 5 μg once i.v. immediately", "result": "markedly improved survival; also recorded: fully protective"},
      {"measurement": "survival, delayed treatment", "setting": "A. baumannii HUMC1 [3]; lung model, therapy administered 4 hr post-infection", "result": "fully protective"},
      {"measurement": "survival", "setting": "A. baumannii HUMC1 [3]; 5 μg i.v., FIG. 4 / FIG. 9A", "result": "nearly fully protective; also recorded: markedly improved survival"},
      {"measurement": "survival", "setting": "A. baumannii HUMC1 [3]; 50 μg i.p., FIG. 9B", "result": "fully protective"},
      {"measurement": "macrophage uptake of A. baumannii", "setting": "[4]; C8 5 μg/mL, heat-inactivated or complement-active serum", "result": "markedly increased; also recorded: markedly improved macrophage uptake"},
      {"measurement": "macrophage uptake of A. baumannii with active complement", "setting": "[4]; C8 MAb plus normal serum with active complement", "result": "highest uptake; also recorded: enhancement was greatest with complement"},
      {"measurement": "physical binding site on the bacterial surface by electron microscopy", "setting": "A. baumannii HUMC1 [5]", "result": "bound to the pili on the bacterial surface; also recorded: binding to the pili"},
      {"measurement": "protection against infection (survival)", "setting": "A. baumannii HUMC1 [6]; high dose (approximately 150 μg)", "result": 100, "unit": "%"},
      {"measurement": "protection against infection (survival)", "setting": "A. baumannii HUMC1 [6]; low dose (approximately 50 μg)", "result": 100, "unit": "%"},
      {"measurement": "survival, delayed treatment", "setting": "A. baumannii HUMC1 [6]; i.v. infection, treated i.p. (50 μg) at 30 min post-infection, FIG. 7C", "result": "rescued from lethal infection"},
      {"measurement": "survival, delayed treatment (monotherapy)", "setting": "A. baumannii HUMC1 [6]; i.v. infection, treated i.p. at 1 hr post-infection, C8 150 μg, colistin 0.0125 mg/kg, FIG. 7D", "result": "not all mice survived; also recorded: minimally improved survival; also recorded: too late"},
      {"measurement": "reduction of bacterial burden in the blood vs control mice", "setting": "A. baumannii HUMC1 [7]; 50 μg C8, FIG. 9C", "result": 7, "unit": "log"},
      {"measurement": "reduction of bacterial burden in the lungs vs control mice", "setting": "A. baumannii HUMC1 [7]; 50 μg C8, FIG. 9C", "result": 2, "unit": "log"},
      {"measurement": "lung histology (H&E)", "setting": "A. baumannii HUMC1 [7]; FIG. 9D-E", "result": "appeared normal; also recorded: maintained normal lung architecture"},
      {"measurement": "plasma IL-6", "setting": "A. baumannii HUMC1 [8]; 2 hr after infection, FIG. 8B", "result": "significantly reduced"},
      {"measurement": "plasma TNF", "setting": "A. baumannii HUMC1 [8]; 2 hr after infection, FIG. 8B", "result": "significantly reduced"},
      {"measurement": "anion gap", "setting": "A. baumannii HUMC1 [8]; [9]", "result": "normal"},
      {"measurement": "base deficit", "setting": "A. baumannii HUMC1 [8]; [9]", "result": "normal"},
      {"measurement": "blood glucose", "setting": "A. baumannii HUMC1 [8]; [9]", "result": "normal"},
      {"measurement": "blood pH", "setting": "A. baumannii HUMC1 [8]; [9]", "result": "normal"},
      {"measurement": "serum bicarbonate", "setting": "A. baumannii HUMC1 [8]; [9]", "result": "normal"},
      {"measurement": "plasma IL-1β", "setting": "A. baumannii HUMC1 [8]; 22 hr post-infection, FIG. 8B", "result": "virtually undetectable"},
      {"measurement": "plasma IL-10", "setting": "A. baumannii HUMC1 [8]; 22 hr post-infection, FIG. 8B", "result": "virtually undetectable"},
      {"measurement": "blood urea nitrogen (BUN) levels", "setting": "A. baumannii HUMC1 [8]; 22 hr post-infection, FIG. 8C", "result": "baseline"},
      {"measurement": "physiology (biomarkers of sepsis)", "setting": "A. baumannii HUMC1 [8]; between 2 and 24 hours, FIG. 8C", "result": "maintained baseline physiology"},
      {"measurement": "bacterial density in the blood over time", "setting": "A. baumannii HUMC1 [8]; over the next 20 h, 5 μg i.v., FIG. 8A", "result": "continued to decrease"},
      {"measurement": "lower bacterial density in the blood than isotype control", "setting": "A. baumannii HUMC1 [8]; two hours after treatment, 5 μg i.v., FIG. 8A", "result": "1,000 fold"}
    ]}
  ]
}
